Changes are numbered by the printed parent chain.
B1: MTK-224 (antibody, human IgG1, V domains shown)
VH: QVQLQQPGAELVKPGASVKVSCKASGYTFTSYWMHWVKQRPGQGLEWIGRIHPFDSDTNYNQKFKGKATLTVDKSSSTAYMQLSSLTSEDSAVYYCSIAGFAYWGQGTLVTVSA
VL: DIVMTQSPATLSVTPGDRVSLSCRASQIISDYLNWYQQKSHESPRLLIKYASQSISGIPSRFSGSGSGSDFTLSINSVEPEDVGVYYCQNGHSFPLTFGAGTKLELK
B2: MTK-209 (antibody, human IgG1, V domains shown)
VH: B1 VH with S31N, M34I, D57E, T58P, Q82H, S84T, S97A, I98L, G100S
VL: ETTVTQSPASLSMAMGEKATIRCITSTDIDDKMNWYQQKPGKPPKLLISAGNTLRPGVPSRFSSSGYGTDFVLTVENMLSEDVADYYCLQGGALPLTFGSGTKLEIK
B3: MTK-212 (antibody, human IgG1, V domains shown)
VH: QVQLQQSGPELVKPGASVKISCKASGYAFSSSWVNWVKQRPGKGLEWIGRIYPGDGDSNYNGNFKGKATLTADKSSNTAYLQLSSLTSEDSAVYFCARKSHFIYYTLDYWGQGTPVTVSS
VL: DIVMTQSHKFKSTSVGDRVSIACKASQDVGTSVAWYQQKPGKSPKLLIYWASSRHTGVPDRFTGSGSGTDFTLTISNVQSEDLTDYFCQQYSTYPYTFGGGTKLEIK
B4: MTK-227 (antibody, human IgG1, V domains shown)
VH: EVKLVESGGGLVQPGGSLSLSCAASGFTFTDNYMTWVRQPPGKALEWLGFSRNKANGYTTEYSASVKGRFTISRDSSQSILYLQMNALRAEDSGTYYCARFPPHYYAGGYFDVWGTGTTVTVSS
VL: DIQMTQSPASLSASVGETVTITCRASENIYSYLAWYQQKQGKSPQLLVYNAKTLAEGVPSRFSGSGSGTQFSLKINSLQPADFGSYYCQHYYRTPPTFGGGTKLEIK
B5: MTK-214 (antibody, human IgG1, V domains shown)
VH: QVQLQQPGAELVKPGASVKVSCKASGYTFTNYWMHWMKQRPGQGLEWIGRIHPFDSDTNYNEKFTDKATLTVDKSSSTAYMQLSSLTSEDSAVYYCAIGTLIYWGQGTTLTASS
VL: DILLTQSPATLSVTPGETVSLSCRASQSIYKKLHWFQQRSHRSPRLLIKFASDSISGIPSRFTGSGSGTDYTLSINSVKPEDEAIYYCLQGYSTPLTFGAGTKLELK
B6: MTK-203 (antibody, human IgG1, V domains shown)
VH: QVQLQQPGAELVKPGASVKVSCKASGYTFTNYWMHWVKQRPGQGLEWIGRIHPFDTETNDNQKFKGKATLTVDKSSSTAYMQLSSLTSEDSAVYYCVIPANGGFAYWGQGTLVTVSA
VL: ETTVTQSPASLSVATGEKVTIRCITSTDIGDDMNWYQQKPGEPPKVLISEGNSLRPGVPSRFSSSGYGTDFVFTIENTLSEDVADYFCLQSDNLPLTFGSGTKLEIK
B7: MTK-230 (antibody, human IgG1, V domains shown)
VH: EVQLQQSGPELVKPGASVRIPCKASGYTFSDYNMDWVKQSHGKSLEWIGNINPNIGGTIYSQKFKGKATLTVDKSSSTAYMELRSLTSEDTAVYYCARGDYGFASWGQGTLVTVSA
VL: DIVLTQSPASLTVSLGQRATISCRASRSVSTSGYSYMHWYQQKPGQPPKLLIYLASNLESGVPARFSGSRSGTDFTLNIHPVEEEDAATYYCQHSREYPFTFGSGTKLEIK

Molecular target: T1, MerTK N-terminal ECD Half-and-half chimera (human)
T1 construct: tested as culture supernatant; also called MerTK N-term half-and-half chimera; MerTK N-terminal ECD (NT-Ig1-Ig2) + Axl C-terminal ECD (FN1-FN2-JM)
T1 chain: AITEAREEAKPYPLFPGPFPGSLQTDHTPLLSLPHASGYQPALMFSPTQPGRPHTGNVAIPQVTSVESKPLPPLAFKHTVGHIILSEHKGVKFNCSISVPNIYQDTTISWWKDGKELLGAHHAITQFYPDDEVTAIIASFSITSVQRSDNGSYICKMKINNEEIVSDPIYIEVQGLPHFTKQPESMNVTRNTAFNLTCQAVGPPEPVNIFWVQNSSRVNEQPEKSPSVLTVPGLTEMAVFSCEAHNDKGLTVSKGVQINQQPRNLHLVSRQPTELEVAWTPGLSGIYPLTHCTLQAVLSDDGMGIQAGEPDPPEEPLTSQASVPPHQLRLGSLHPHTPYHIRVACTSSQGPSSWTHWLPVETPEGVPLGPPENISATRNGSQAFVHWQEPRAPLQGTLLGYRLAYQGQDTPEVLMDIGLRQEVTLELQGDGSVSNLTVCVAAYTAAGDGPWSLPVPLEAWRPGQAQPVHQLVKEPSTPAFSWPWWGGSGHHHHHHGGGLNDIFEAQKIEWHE
Assay: SPR, construct supernatant over immobilised Ab
Experimental: Binding of anti-MerTK antibodies of the present disclosure to these domain-swapped chimera or deletion mutants was tested by Surface Plasmon Resonance (SPR) using Carterra LSA. Purified anti-MerTK antibodies were immobilized in duplicate on a HC30M chip (Carterra) by amine coupling, following the manufacturer's instructions (described previously).
Supernatants containing the constructs were diluted 1:1 with running buffer containing 0.5 mg/mL BSA (HBS-TE, Carterra; BSA, Sigma) and injected over the immobilized antibodies. The surface was regenerated with 10 mM Glycine pH2.0 after each construct injection. Sensorgrams were analyzed using Carterra Epitope software to identify patterns of construct binding. Loss of binding to MerTK constructs with domains deleted or swapped in from Axl and/or gain of binding to Axl constructs with MerTK domains swapped in were evaluated. Data from these studies were used to construct a domain binding map for anti-MerTK antibodies and their binding to various domains of human MerTK.

Row | Binder | binding result
1 | B1 | no binding
2 | B2 | no binding
3 | B3 | no binding
4 | B4 | no binding
5 | B5 | no binding
6 | B6 | no binding
7 | B7 | no binding

molecular target: T2, recombinant murine MerTK extracellular domain (mouse, UniProt Q60805 19-497); assay: SPR Carterra LSA, Ab immobilised
T2 construct: also called Mouse MerTK; murine MerTK ECD; not shown: polyHis or TEVS/Thrombin/murine IgG2a-Fc tag
T2 sequence: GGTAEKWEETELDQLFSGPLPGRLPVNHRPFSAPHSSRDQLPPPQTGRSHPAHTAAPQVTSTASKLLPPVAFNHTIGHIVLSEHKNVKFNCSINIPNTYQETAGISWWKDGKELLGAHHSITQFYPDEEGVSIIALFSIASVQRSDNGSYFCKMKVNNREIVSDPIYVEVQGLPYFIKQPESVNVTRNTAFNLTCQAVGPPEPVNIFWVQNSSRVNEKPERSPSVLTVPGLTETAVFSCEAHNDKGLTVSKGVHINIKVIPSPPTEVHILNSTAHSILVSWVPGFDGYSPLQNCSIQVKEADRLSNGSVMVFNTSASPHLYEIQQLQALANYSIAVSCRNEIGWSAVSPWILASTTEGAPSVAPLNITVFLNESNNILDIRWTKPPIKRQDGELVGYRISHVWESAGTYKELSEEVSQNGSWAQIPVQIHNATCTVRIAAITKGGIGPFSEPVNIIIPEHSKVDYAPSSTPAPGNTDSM
Method in brief: (§1)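 Surface plasmon resonance on a Carterra LSA measured affinity of immobilized antibodies for human, cynomolgus or mouse MerTK ectodomain diluted in HBS-TE with 0.5 mg/ml BSA. Analytes flowed over the full array, surfaces were regenerated with Protein A/G Elution Buffer plus 1M NaCl or 10 mM Glycine pH 2.5, and spots binding under 25 RU were discarded before kinetic fitting.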

Row | Binder | Kd
8 | B1 | 430 nM
9 | B2 | 460 nM
10 | B3 | 11 nM
11 | B4 | 8.3 nM
12 | B5 | 320 nM
13 | B6 | 400 nM
14 | B7 | 29 nM

Molecular target: T3, recombinant cynomolgus MerTK extracellular domain (cynomolgus, UniProt Q12866 21-505 (human entry))
T3 construct: also called cyno MerTK ECD; not shown: polyHis or TEVS/Thrombin/murine IgG2a-Fc tag
T3 chain: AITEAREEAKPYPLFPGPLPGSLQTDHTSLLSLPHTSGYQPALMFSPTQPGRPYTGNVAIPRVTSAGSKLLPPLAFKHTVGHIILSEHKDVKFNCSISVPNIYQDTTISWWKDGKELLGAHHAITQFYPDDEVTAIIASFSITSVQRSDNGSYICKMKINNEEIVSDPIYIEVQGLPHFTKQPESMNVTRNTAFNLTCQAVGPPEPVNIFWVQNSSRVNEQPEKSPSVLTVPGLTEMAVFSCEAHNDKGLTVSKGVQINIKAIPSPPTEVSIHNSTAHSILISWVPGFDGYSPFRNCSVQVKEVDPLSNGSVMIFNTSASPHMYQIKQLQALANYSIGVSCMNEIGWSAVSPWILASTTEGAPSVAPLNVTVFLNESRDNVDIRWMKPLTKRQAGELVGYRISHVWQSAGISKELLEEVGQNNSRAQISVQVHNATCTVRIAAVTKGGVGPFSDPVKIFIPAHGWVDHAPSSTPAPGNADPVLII
Assay: SPR Carterra LSA, Ab immobilised
Method in brief: as §1

Row | Binder | Kd
15 | B3 | 1500 nM
16 | B4 | 78 nM

molecular target: T2, recombinant murine MerTK extracellular …; assay: SPR Carterra LSA
Experimental: (§2) Binding kinetics of anti-MerTK IgG1 antibodies of the present disclosure to human, cyno, and murine MerTK were evaluated using a Carterra LSA instrument (Carterra, Salt Lake City, UT). […] A HC200M sensor chip (Carterra) was activated using the single channel flow cell with a 7-minute injection of a 1:1:1 mixture of 100 mM MES pH 5.5, 100 mM sulfo-NHS, 400 mM EDC (all reconstituted in MES pH 5.5; 100 μl of each mixed in vial immediately before running assay). After switching to the multi-channel array flow cell, the antibodies were injected over the activated chip in three 96-spot arrays for 10 minutes each. The remaining unconjugated active groups on the chip were then blocked by injecting 1M Ethanolamine pH 8.5 (Carterra) for 7 minutes using the single channel flow cell. The resulting sensor chip contained three spots for each antibody, at three different densities. Two independent experiments were performed as follows, resulting in an N of between one and six determinations for each antibody. Spots that yielded less than 25 RU of analyte binding were excluded from further analysis.
(§3) After priming with running buffer (HBS-TE, Carterra) with 0.5 mg/ml BSA (Sigma), the immobilized anti-MerTK antibodies were tested for their ability to bind to several forms of recombinant MerTK extracellular domain, including human, cynomolgus, and mouse orthologs as described above. Estimates of affinity were generated by injecting each analyte over the entire antibody array using the single channel flow cell. MerTK analytes were diluted with running buffer, in a series of six, three-fold serial dilutions starting from 1 μM for human and cynomolgus MerTK, and 600 nM for mouse MerTK. Analytes were injected for 5 minutes, and dissociation was followed for 10 minutes. After each analyte injection, antibodies were regenerated with either Protein A/G Elution Buffer (Thermo) with 1M NaCl (Teknova), or with 10 mM Glycine pH 2.5. Three buffer blanks were run between each series (one species per series). Data were processed and analyzed using NextGenKIT high-throughput kinetics analysis software (Carterra).

Row | Binder | Ratio of KD for Mouse vs Human MerTK
17 | B1 | 64.2 ratio
18 | B2 | 35.4 ratio
19 | B3 | 0.13 ratio
20 | B4 | 0.08 ratio
21 | B5 | 32 ratio
22 | B6 | 12.5 ratio
23 | B7 | 3.5 ratio

Molecular target: T3, recombinant cynomolgus MerTK …
Assay: SPR Carterra LSA
Experimental: as §2, §3

Row | Binder | Ratio of KD for Cynomolgus vs Human MerTK
24 | B3 | 18.3 ratio
25 | B4 | 0.8 ratio

Reference: patent US20240294650A1 (Alector, published 2024)
